Data on 42 variants can be found in the Human Domainome abundance scans (Beltran et al. 2025).

± gives the uncertainty stated by the source.

To fix the notation:
B1: Tumor protein p73, residues 487 to 549; numbered along this chain, O15350 (parent)
chain: YHADPSLVSFLTGLGCPNCIEYFTSQGLQSIYHLQNLTIEDLGALKIPEQYRMTIWRGLQDLK

In the data set the parent is B1. In words: abundance fitness (aPCA) (normalised: wild type 0, dead -1); higher = more abundant; growth selection in yeast, the domain comes from the species named. The conditions noted are these: Homo sapiens.
As for YHADPSLVSFLTGLGWPNCIEYFTSQGLQSIYHLQNLTIEDLGALKIPEQYRMTIWRGLQDLK, the abundance fitness is -0.773 ± 0.072.
The figure for YHADPSLVSFLTGLGYPNCIEYFTSQGLQSIYHLQNLTIEDLGALKIPEQYRMTIWRGLQDLK is -0.078 ± 0.069.
The figure for YHADPSLVSFLTGLGTPNCIEYFTSQGLQSIYHLQNLTIEDLGALKIPEQYRMTIWRGLQDLK is -0.163 ± 0.05; for YHADPSLVSFLTGLGSPNCIEYFTSQGLQSIYHLQNLTIEDLGALKIPEQYRMTIWRGLQDLK it is -0.389 ± 0.059; for YHADPSLVSFLTGLGCENCIEYFTSQGLQSIYHLQNLTIEDLGALKIPEQYRMTIWRGLQDLK it is 0.047 ± 0.039.
The figure for YHADPSLVSFLTGLGCQNCIEYFTSQGLQSIYHLQNLTIEDLGALKIPEQYRMTIWRGLQDLK is 0.106 ± 0.053; for YHADPSLVSFLTGLGCDNCIEYFTSQGLQSIYHLQNLTIEDLGALKIPEQYRMTIWRGLQDLK it is -0.044 ± 0.051; for YHADPSLVSFLTGLGCVNCIEYFTSQGLQSIYHLQNLTIEDLGALKIPEQYRMTIWRGLQDLK it is 0.007 ± 0.035.
YHADPSLVSFLTGLGCNNCIEYFTSQGLQSIYHLQNLTIEDLGALKIPEQYRMTIWRGLQDLK: the abundance fitness is -0.154 ± 0.14.
With YHADPSLVSFLTGLGCYNCIEYFTSQGLQSIYHLQNLTIEDLGALKIPEQYRMTIWRGLQDLK, the abundance fitness was 0.017 ± 0.063.
In the case of YHADPSLVSFLTGLGCLNCIEYFTSQGLQSIYHLQNLTIEDLGALKIPEQYRMTIWRGLQDLK, the abundance fitness came out at 0.023 ± 0.034.
With YHADPSLVSFLTGLGCHNCIEYFTSQGLQSIYHLQNLTIEDLGALKIPEQYRMTIWRGLQDLK, the abundance fitness was -0.031 ± 0.1.
The figure for YHADPSLVSFLTGLGCRNCIEYFTSQGLQSIYHLQNLTIEDLGALKIPEQYRMTIWRGLQDLK is -0.024 ± 0.03.
With YHADPSLVSFLTGLGCSNCIEYFTSQGLQSIYHLQNLTIEDLGALKIPEQYRMTIWRGLQDLK, the abundance fitness came to 0.015 ± 0.031.
The figure for YHADPSLVSFLTGLGCANCIEYFTSQGLQSIYHLQNLTIEDLGALKIPEQYRMTIWRGLQDLK is -0.081 ± 0.043; for YHADPSLVSFLTGLGCWNCIEYFTSQGLQSIYHLQNLTIEDLGALKIPEQYRMTIWRGLQDLK it is -0.14 ± 0.039.
The figure for YHADPSLVSFLTGLGCCNCIEYFTSQGLQSIYHLQNLTIEDLGALKIPEQYRMTIWRGLQDLK is -0.08 ± 0.051; for YHADPSLVSFLTGLGCTNCIEYFTSQGLQSIYHLQNLTIEDLGALKIPEQYRMTIWRGLQDLK it is 0.028 ± 0.048; for YHADPSLVSFLTGLGCFNCIEYFTSQGLQSIYHLQNLTIEDLGALKIPEQYRMTIWRGLQDLK it is 0.036 ± 0.061.
The figure for YHADPSLVSFLTGLGCKNCIEYFTSQGLQSIYHLQNLTIEDLGALKIPEQYRMTIWRGLQDLK is 0.075 ± 0.04; for YHADPSLVSFLTGLGCINCIEYFTSQGLQSIYHLQNLTIEDLGALKIPEQYRMTIWRGLQDLK it is -0.122 ± 0.087.
As for YHADPSLVSFLTGLGCMNCIEYFTSQGLQSIYHLQNLTIEDLGALKIPEQYRMTIWRGLQDLK, the abundance fitness is -0.007 ± 0.05.
Take YHADPSLVSFLTGLGCPNCINYFTSQGLQSIYHLQNLTIEDLGALKIPEQYRMTIWRGLQDLK: the abundance fitness is -0.037 ± 0.098.
The figure for YHADPSLVSFLTGLGCPNCIAYFTSQGLQSIYHLQNLTIEDLGALKIPEQYRMTIWRGLQDLK is -0.051 ± 0.04; for YHADPSLVSFLTGLGCPNCIHYFTSQGLQSIYHLQNLTIEDLGALKIPEQYRMTIWRGLQDLK it is -0.089 ± 0.061; for YHADPSLVSFLTGLGCPNCIKYFTSQGLQSIYHLQNLTIEDLGALKIPEQYRMTIWRGLQDLK it is -0.048 ± 0.052.
The figure for YHADPSLVSFLTGLGCPNCIDYFTSQGLQSIYHLQNLTIEDLGALKIPEQYRMTIWRGLQDLK is 0.012 ± 0.065.
Take YHADPSLVSFLTGLGCPNCISYFTSQGLQSIYHLQNLTIEDLGALKIPEQYRMTIWRGLQDLK: the abundance fitness is -0.003 ± 0.044.
For YHADPSLVSFLTGLGCPNCITYFTSQGLQSIYHLQNLTIEDLGALKIPEQYRMTIWRGLQDLK, the abundance fitness is -0.054 ± 0.063.
For the variant YHADPSLVSFLTGLGCPNCICYFTSQGLQSIYHLQNLTIEDLGALKIPEQYRMTIWRGLQDLK, the abundance fitness was -0.182 ± 0.07.
Regarding YHADPSLVSFLTGLGCPNCIPYFTSQGLQSIYHLQNLTIEDLGALKIPEQYRMTIWRGLQDLK, the abundance fitness is -0.053 ± 0.049.
Take YHADPSLVSFLTGLGCPNCIIYFTSQGLQSIYHLQNLTIEDLGALKIPEQYRMTIWRGLQDLK: the abundance fitness is -0.138 ± 0.052.
Take YHADPSLVSFLTGLGCPNCIGYFTSQGLQSIYHLQNLTIEDLGALKIPEQYRMTIWRGLQDLK: the abundance fitness came to 0.034 ± 0.035.
The figure for YHADPSLVSFLTGLGCPNCIRYFTSQGLQSIYHLQNLTIEDLGALKIPEQYRMTIWRGLQDLK is -0.009 ± 0.03; for YHADPSLVSFLTGLGCPNCSEYFTSQGLQSIYHLQNLTIEDLGALKIPEQYRMTIWRGLQDLK it is -0.049 ± 0.03.
The figure for YHADPSLVSFLTGLGCPNCTEYFTSQGLQSIYHLQNLTIEDLGALKIPEQYRMTIWRGLQDLK is -0.003 ± 0.036; for YHADPSLVSFLTGLGCPNCMEYFTSQGLQSIYHLQNLTIEDLGALKIPEQYRMTIWRGLQDLK it is 0.003 ± 0.038.
Regarding YHADPSLVSFLTGLGCPNCREYFTSQGLQSIYHLQNLTIEDLGALKIPEQYRMTIWRGLQDLK, the abundance fitness was -0.111 ± 0.033.
Consider YHADPSLVSFLTGLGCPNCQEYFTSQGLQSIYHLQNLTIEDLGALKIPEQYRMTIWRGLQDLK, for which the abundance fitness is -0.082 ± 0.046.
The figure for YHADPSLVSFLTGLGCPNCWEYFTSQGLQSIYHLQNLTIEDLGALKIPEQYRMTIWRGLQDLK is -0.36 ± 0.05.
The figure for YHADPSLVSFLTGLGCPNCNEYFTSQGLQSIYHLQNLTIEDLGALKIPEQYRMTIWRGLQDLK is -0.282 ± 0.044; for YHADPSLVSFLTGLGCPNCCEYFTSQGLQSIYHLQNLTIEDLGALKIPEQYRMTIWRGLQDLK it is -0.074 ± 0.038.
